Assay results from patent US20220195012A1.

How the values were obtained:
AP C3-convertase (C3bBb) = AP C3-convertase (C3bBb) (UniProt P01024); test: cell-based or functional assay
CP C3-convertase (C4b2a) = CP C3-convertase (C4b2a) (UniProt P0C0L4); test: cell-based or functional assay
CP C3-convertase (C4b2a), sequence (P0C0L4 757-1446 limits assumed, chain 1 of 4): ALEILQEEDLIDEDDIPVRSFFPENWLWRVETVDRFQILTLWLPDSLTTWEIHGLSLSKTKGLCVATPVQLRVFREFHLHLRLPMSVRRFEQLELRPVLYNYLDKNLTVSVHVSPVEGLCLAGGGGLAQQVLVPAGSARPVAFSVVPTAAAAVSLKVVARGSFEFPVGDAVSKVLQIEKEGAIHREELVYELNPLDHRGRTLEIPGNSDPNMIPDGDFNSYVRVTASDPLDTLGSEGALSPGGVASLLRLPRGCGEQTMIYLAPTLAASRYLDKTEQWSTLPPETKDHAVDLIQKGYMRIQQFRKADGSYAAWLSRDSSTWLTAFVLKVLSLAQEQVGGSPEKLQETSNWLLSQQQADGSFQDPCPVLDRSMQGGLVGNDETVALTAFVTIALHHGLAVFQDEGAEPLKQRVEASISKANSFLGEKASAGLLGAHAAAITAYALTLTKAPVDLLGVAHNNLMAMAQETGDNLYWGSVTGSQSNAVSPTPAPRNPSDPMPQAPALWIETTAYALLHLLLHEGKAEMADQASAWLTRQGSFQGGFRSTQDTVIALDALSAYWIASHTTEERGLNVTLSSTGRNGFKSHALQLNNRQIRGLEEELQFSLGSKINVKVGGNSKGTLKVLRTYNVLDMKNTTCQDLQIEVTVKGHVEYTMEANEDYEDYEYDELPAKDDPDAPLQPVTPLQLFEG
CP C3-convertase (C4b2a), sequence (P0C0L4 20-675 limits assumed, chain 2 of 4): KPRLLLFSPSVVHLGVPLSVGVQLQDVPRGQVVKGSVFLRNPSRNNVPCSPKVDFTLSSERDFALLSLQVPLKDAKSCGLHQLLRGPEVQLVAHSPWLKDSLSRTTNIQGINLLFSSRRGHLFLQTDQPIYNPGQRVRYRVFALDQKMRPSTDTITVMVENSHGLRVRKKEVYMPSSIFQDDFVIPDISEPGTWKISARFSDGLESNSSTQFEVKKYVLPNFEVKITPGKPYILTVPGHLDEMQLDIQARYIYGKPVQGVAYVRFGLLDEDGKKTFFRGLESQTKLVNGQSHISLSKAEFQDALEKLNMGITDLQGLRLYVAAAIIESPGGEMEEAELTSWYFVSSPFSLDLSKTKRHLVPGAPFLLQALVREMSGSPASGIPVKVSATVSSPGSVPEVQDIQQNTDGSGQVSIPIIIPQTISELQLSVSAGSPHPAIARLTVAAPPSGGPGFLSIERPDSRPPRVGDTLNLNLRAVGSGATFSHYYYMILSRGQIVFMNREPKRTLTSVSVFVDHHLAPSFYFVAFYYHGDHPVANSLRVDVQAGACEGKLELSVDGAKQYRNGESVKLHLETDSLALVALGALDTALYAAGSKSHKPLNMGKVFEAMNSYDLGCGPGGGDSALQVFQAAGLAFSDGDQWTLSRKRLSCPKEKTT
CP C3-convertase (C4b2a), sequence (P0C0L4 1454-1744 limits assumed, chain 3 of 4): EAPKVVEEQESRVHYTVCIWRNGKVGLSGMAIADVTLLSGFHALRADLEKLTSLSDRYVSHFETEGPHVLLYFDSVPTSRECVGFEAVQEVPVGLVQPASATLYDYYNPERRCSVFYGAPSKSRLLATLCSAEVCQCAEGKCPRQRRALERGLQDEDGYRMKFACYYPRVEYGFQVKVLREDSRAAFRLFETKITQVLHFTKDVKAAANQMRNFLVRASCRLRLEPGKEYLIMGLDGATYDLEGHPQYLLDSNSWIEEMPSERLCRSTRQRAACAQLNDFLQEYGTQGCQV
CP C3-convertase (C4b2a), sequence (P06681 244-752 limits assumed, chain 4 of 4, further chain): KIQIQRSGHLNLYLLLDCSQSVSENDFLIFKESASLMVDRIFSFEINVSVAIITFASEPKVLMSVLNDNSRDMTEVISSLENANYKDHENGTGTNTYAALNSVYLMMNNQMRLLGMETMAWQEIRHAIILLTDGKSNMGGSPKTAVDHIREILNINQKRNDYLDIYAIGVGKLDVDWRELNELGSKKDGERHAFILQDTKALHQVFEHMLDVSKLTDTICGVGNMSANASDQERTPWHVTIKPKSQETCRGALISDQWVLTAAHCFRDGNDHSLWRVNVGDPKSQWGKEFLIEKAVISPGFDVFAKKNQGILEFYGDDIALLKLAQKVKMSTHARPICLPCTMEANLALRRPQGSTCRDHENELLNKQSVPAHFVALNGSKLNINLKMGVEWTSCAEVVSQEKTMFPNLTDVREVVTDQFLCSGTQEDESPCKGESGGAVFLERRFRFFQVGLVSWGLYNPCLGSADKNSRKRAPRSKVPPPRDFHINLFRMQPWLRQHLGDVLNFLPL

AP C3-convertase (C3bBb), sequence (P01024 23-667 limits assumed, chain 1 of 3): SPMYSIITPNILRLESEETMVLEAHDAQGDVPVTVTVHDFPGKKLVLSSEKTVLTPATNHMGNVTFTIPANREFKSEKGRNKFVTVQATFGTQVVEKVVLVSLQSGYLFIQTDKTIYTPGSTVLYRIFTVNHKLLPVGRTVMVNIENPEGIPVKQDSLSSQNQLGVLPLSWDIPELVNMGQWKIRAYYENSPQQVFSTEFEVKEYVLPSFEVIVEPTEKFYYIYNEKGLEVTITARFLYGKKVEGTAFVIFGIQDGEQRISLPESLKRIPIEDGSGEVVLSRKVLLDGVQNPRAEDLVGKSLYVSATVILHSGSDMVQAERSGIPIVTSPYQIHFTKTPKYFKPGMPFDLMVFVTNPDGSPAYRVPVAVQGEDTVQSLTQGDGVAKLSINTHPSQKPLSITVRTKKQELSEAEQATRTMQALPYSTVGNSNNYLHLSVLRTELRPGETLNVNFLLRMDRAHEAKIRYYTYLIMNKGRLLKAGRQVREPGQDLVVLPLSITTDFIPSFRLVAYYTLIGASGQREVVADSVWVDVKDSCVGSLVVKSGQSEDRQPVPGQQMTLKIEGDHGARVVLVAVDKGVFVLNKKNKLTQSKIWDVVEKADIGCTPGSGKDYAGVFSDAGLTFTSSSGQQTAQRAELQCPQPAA
AP C3-convertase (C3bBb), sequence (P01024 749-1663 limits assumed, chain 2 of 3): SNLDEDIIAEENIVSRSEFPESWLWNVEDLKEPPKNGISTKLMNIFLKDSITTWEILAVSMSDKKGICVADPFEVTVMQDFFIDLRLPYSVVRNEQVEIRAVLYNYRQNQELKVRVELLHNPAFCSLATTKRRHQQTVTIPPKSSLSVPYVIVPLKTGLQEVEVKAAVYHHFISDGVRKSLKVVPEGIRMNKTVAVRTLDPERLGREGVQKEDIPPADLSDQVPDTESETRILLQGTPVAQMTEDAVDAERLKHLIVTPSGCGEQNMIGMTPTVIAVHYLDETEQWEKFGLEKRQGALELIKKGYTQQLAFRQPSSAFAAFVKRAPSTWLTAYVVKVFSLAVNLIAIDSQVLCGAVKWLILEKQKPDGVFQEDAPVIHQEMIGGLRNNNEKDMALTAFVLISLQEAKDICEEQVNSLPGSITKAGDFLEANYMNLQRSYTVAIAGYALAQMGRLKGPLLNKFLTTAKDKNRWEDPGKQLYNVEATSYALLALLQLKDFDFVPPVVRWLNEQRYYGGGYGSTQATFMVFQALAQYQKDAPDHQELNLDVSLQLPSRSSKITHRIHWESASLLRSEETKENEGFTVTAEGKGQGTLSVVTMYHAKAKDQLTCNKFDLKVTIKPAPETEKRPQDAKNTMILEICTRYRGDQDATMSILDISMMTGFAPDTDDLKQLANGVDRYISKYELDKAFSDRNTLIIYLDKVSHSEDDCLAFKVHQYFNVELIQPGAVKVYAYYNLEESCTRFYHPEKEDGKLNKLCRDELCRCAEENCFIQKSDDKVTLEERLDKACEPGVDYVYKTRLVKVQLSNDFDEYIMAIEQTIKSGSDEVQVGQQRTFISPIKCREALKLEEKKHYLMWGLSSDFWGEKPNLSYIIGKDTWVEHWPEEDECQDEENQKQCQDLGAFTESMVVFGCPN
AP C3-convertase (C3bBb), sequence (P00751 260-764 limits assumed, chain 3 of 3, further chain): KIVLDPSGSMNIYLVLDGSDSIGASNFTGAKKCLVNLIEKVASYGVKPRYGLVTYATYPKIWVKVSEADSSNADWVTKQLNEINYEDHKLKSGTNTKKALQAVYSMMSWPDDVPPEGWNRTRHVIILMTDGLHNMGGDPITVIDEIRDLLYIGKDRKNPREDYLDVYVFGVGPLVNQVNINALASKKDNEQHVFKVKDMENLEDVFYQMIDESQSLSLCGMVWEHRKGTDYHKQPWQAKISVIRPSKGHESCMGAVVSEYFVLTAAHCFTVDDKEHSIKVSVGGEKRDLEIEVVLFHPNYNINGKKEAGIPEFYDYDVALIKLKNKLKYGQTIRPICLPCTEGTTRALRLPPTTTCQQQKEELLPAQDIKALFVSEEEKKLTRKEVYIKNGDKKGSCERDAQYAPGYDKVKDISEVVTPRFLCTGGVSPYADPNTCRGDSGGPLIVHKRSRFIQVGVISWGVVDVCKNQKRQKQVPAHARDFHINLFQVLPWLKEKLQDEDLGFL
D2D3 (DAF deletion mutant D2-D3), sequence (P08174 98-224 limits assumed, stated change not applied): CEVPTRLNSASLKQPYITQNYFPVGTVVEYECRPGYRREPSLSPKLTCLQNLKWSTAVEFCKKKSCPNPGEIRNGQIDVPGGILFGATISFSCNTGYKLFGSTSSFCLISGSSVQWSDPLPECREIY

Substance	AP-DAA IC50 (AP C3-convertase (C3bBb)) [µM]	Relative AP-DAA (AP C3-convertase (C3bBb))	CP-DAA IC50 (CP C3-convertase (C4b2a)) [µM]	Relative CP-DAA (CP C3-convertase (C4b2a))	AP-DAA, fold reduction compared to DAF (AP C3-convertase (C3bBb)) [fold]
D2D3 (DAF deletion mutant D2-D3) (from UniProt P08174 98-224)	> 0.01	< 0.2	10.9	< 0.3	
D2D3D4M4 (DAF-MCP chimera)	0.0056	0.4	5.7	0.4	10
